Data taken from patent publication US20190248863A1.

How the values were obtained:
Experiment in all cases: cell-based or functional assay
[1] = target: human RXFP2 (human) (UniProt Q8WXD0)
[2] = target: human RXFP3 (human) (UniProt Q9NSD7)
[3] = target: human RXFP4 (human) (UniProt Q8TDU9)
Chain of human RXFP4 (human) (Q8TDU9 whole entry): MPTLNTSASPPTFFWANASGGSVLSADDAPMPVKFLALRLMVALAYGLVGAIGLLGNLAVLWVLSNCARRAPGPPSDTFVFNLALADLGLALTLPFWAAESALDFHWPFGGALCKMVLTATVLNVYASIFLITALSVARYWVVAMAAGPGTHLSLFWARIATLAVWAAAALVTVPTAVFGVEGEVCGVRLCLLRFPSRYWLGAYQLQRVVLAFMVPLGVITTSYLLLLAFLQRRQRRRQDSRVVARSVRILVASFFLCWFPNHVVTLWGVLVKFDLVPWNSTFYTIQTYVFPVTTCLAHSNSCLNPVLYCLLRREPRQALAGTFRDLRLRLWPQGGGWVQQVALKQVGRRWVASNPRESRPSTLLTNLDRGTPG

Chain of human RXFP3 (human) (Q9NSD7 whole entry): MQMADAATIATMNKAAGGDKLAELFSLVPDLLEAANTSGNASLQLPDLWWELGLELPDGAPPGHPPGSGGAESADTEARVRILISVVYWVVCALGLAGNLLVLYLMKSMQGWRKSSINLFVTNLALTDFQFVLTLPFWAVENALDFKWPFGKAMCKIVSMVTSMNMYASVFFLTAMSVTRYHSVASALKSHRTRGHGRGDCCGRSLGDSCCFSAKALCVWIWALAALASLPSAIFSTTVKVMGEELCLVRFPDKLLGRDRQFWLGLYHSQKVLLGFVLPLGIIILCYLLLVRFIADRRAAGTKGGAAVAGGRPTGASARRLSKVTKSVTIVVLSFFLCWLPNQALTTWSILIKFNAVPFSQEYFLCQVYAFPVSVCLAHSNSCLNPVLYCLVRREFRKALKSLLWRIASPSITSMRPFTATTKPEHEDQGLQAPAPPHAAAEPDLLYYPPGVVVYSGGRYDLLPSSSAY
Chain of human RXFP2 (human) (Q8WXD0 whole entry): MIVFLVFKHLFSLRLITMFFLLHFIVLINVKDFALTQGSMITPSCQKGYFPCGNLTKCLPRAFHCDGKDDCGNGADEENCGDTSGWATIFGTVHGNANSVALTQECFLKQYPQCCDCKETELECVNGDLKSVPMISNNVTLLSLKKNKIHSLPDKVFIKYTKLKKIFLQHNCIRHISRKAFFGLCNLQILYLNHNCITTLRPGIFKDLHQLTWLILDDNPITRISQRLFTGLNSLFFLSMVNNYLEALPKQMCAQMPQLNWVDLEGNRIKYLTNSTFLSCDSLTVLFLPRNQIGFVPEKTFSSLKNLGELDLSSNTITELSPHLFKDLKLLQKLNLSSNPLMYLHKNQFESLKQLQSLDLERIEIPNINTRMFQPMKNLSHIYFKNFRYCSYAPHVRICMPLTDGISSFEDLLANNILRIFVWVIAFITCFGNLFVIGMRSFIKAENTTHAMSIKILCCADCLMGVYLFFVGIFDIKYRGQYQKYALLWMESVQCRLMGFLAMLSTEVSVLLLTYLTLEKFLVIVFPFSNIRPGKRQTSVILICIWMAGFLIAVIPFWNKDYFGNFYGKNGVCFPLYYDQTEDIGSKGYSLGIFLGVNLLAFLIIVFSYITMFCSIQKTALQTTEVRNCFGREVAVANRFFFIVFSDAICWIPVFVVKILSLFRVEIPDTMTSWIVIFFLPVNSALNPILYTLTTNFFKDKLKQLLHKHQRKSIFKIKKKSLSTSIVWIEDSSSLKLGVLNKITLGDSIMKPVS

cAMP Assay EC50 (nM), human RXFP2/CHO-K1 cells [1] | cAMP Assay EC50 (nM), inhibition of forskolin-induced cAMP, human RXFP3/CHO-K1 cells [2] | cAMP Assay EC50 (nM), inhibition of forskolin-induced cAMP, human RXFP4/CHO-K1 cells [3] | maximal inhibition of forskolin-induced cAMP (partial agonist activity), human RXFP4/CHO-K1 cells [3] | Substance
0.46 nM | – | – | – | insulin like 3 protein-INSL3 (from UniProt P51460 106-131; P51460 21-55) (ligand)
– | 0.6 nM | 2.8 nM | 40% | recombinant human relaxin 3 (from UniProt Q8WXF3 119-142; Q8WXF3 26-52) (ligand)
